Here are results for one molecule from patent CN115772221A (BOAOXIN BIOTECHNOLOGY NANJING CO LTD, dated 2023).

The target in the experiment is T1, 重组人CD47-his蛋白 (ACRO biosystems, cat#CD7-H5227, MW 15.6 kDa) (human, UniProt Q08722 19-139, biotin-labelled in the ELISAs (examples 3.1, 4.1, 4.2); unlabelled in Biacore).
T1 construct: Bought protein; also called 人CD47蛋白; 人CD47-生物素; not shown: His tag
Nature of the experiment: SPR (Biacore T200), antibody captured by goat anti-mouse IgG, CD47-his in solution. Background: SPR reads the build-up and loss of mass on a sensor chip optically.

T1 sequence (Q08722 19-139 limits assumed): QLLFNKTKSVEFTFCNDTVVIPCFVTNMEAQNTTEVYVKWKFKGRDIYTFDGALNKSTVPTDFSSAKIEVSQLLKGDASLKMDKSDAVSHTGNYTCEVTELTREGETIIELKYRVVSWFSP

B1: 小鼠抗CD47单克隆抗体1D2 (antibody, V domains shown)
VH: EVQLQQSGPELVKPGASVRISCKTSGYKFTDYNIHWVKQSHGKSLEYIGYIYPYNISSAYNQKFKSKATVTVDNSSSTSYMELRSLTSEDSAVYYCARGGWRAMDYWGQGTSVTVSS
VL: AVLMTQSPLSLPVSLGDQASLSCRSSQNIVHTNGYTYLAWYLQRPGQSPKLLIYKVSNRFSGVPDRFSGSGSGTDFTLRISRVEAEDLGVYYCFQGSHVPWTFGGGTKLEIK
notes: Tested as a mouse monoclonal antibody purified from a hybridoma; 1D2 is the only named antibody of the invention; also called 本发明的单克隆抗体1D2; 本发明的抗体1D2
With B1, the binding result is reported as “binds”.
